± gives the standard deviation of the averaged measurements.
system: Saccharomyces cerevisiae; experiment: protein stability index of tFT-peptide fusion (C-terminal peptide) (PSI (0-1 scale)); higher = more stable (slower turnover); conditions: genetic background: wild type; temperature: 30 C
Procedure: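 Multiplexed protein stability (MPS) profiling in S. cerevisiae. Random 12-aa peptides (tFT-X12 library) are fused to the C-terminus of a sfGFP-mCherry tandem fluorescent timer, after mCherry and a GGGS linker. Cells are FACS-sorted into 8 mCherry/sfGFP bins and deep-sequenced. The protein stability index (PSI) is the read-weighted bin average, scaled from 0 (unstable) to 1 (stable). Only peptides with >10 reads are reported; cells were grown at 30 °C in SC-His with glucose.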
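Note: PSI is a weighted mean of sequencing reads over stability bins, variants kept only with over 10 reads, mCherry proximal and sfGFP distal, peptide attached via GGGS linker.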

Sequence | protein stability index
EERNSVRGYTES | 0.734 ± 0.028
EESRVRTTNNTT | 0.666 ± 0.057
EFFAPDVVALMR | 0.692 ± 0.17
EFPRHDLDCSLV | 0.7095 ± 0.00082
EGAQVVLVRVGV | 0.547 ± 0.012
EGDGLGWGGQGG | 0.67 ± 0.013
EGDTPFKNRVKF | 0.716 ± 0.061
EGEEVNTGGEEA | 0.642 ± 0.017
EGEGPRGNGSGA | 0.648 ± 0.043
EGGLDPFRVIMG | 0.643 ± 0.029
EGLCVLMTQVGG | 0.576 ± 0.016
EGRCPAMRGAFG | 0.6797 ± 0.0041
EGRPGGVGEGSQ | 0.671 ± 0.011
EGSRRQERAGRQ | 0.6668 ± 0.0028
EGTPGARSQGRE | 0.662 ± 0.035
EGVGRRICSPQA | 0.648 ± 0.031
EGVVGGRWCGRG | 0.676 ± 0.082
EGWLVDVDRIVG | 0.741 ± 0.076
EHLQTHYLWSTG | 0.701 ± 0.062
EIDAKNRDEETN | 0.694 ± 0.019
EILQDRAVSKGR | 0.697 ± 0.039
EITRRAQHWKAK | 0.708 ± 0.018
EKEFLWKAISAV | 0.504 ± 0.016
EKEKKKVHRQEE | 0.712 ± 0.059
EKGKGREIKKGE | 0.646 ± 0.048

Sequence | protein stability index
EKGRKKTYGDEK | 0.669 ± 0.02
EKGSIYVVQYGK | 0.683 ± 0.022
EKHNNNRYKQYL | 0.7255 ± 0.0052
EKKEHNHKVKYN | 0.626 ± 0.026
EKKKKIKNKESI | 0.6932 ± 0.0036
EKKKKKAKKEKN | 0.764 ± 0.045
EKMDIEKKVEGS | 0.812 ± 0.12
EKNRRCQKRKKK | 0.726 ± 0.054
EKQIREERRKIE | 0.704 ± 0.062
EKRDENENTNKK | 0.66 ± 0.072
EKRERKRDSGHR | 0.685 ± 0.063
EKTQQMPQPNNQ | 0.663 ± 0.007
EKTTDIKENERR | 0.692 ± 0.029
ELINQENQPAYE | 0.671 ± 0.038
ELRCSRPIHSDF | 0.681 ± 0.013
ELRISSTTVTSP | 0.664 ± 0.008
ELRTKRGASNPR | 0.7097 ± 0.0021
ELSNLRGLHTCT | 0.654 ± 0.02
ELVSFPIGGMGS | 0.671 ± 0.056
ENDRKKDKERIK | 0.678 ± 0.013
ENKIKERPKMRY | 0.658 ± 0.026
ENLVLRDRGRGM | 0.692 ± 0.017
ENNKRRTKRHKE | 0.62791 ± 0.00025
ENVINGLITIKK | 0.742 ± 0.039
EPDCLVSSSVGI | 0.686 ± 0.049

Sequence | protein stability index
EPDQERKSIQGM | 0.7 ± 0.013
EPPRSPRSLPPL | 0.661 ± 0.0073
EPTLLVRMVANR | 0.529 ± 0.026
EQGIRHVRAIVV | 0.539 ± 0.012
EQRNLELSGHIC | 0.725 ± 0.12
ERCVCLRGVSSG | 0.708 ± 0.011
EREGVREGEGRV | 0.654 ± 0.02
ERGGWGGGSEVG | 0.684 ± 0.091
ERIKQGKKKRGT | 0.778 ± 0.12
ERKGIIIGHSHS | 0.71 ± 0.037
ERKKPKKKRMRY | 0.706 ± 0.011
ERLHRRRRGECA | 0.6743 ± 0.0061
ERPQTKPCQTPL | 0.728 ± 0.038
ERWSHNKEDDRN | 0.6577 ± 0.0048
ERYKKRGKTNKV | 0.662 ± 0.0076
ESAGLAGLSRAA | 0.668 ± 0.022
ESEKKHNKKRRV | 0.654 ± 0.069
ESLRNGKKYNKL | 0.7417 ± 0.0017
ESLSAVAAGRGM | 0.689 ± 0.024
ETEQTSIRRIKQ | 0.728 ± 0.012
ETKKGKKKKMTM | 0.682 ± 0.0069
ETVIQRFLSGHI | 0.699 ± 0.017
EVDSTLAPHGHP | 0.866 ± 0.041
EVEGFLFVFEVK | 0.609 ± 0.015
EVFGLWQGCFVW | 0.728 ± 0.058

Sequence | protein stability index
EVGQLQPNGGWV | 0.661 ± 0.033
EVNYKKRQNKKN | 0.71 ± 0.0066
EVTRAGEDAGDG | 0.643 ± 0.023
EVTSQGWRNGVD | 0.742 ± 0.028
EVWQGRLKGVLG | 0.691 ± 0.031
EWEEGREIGGRV | 0.69633 ± 0.00068
EWGEEDRDGNGR | 0.721 ± 0.053
EWPTESSLSSET | 0.689 ± 0.081
EWTTEQRSVGPR | 0.683 ± 0.02
EWVCRAGVQGGA | 0.691 ± 0.017
EWVYSGDGMGVG | 0.622 ± 0.03
EWYRNNFFFLDL | 0.772 ± 0.02
EYLHPARITGVL | 0.733 ± 0.11
EYRVRHSVDARS | 0.6241 ± 0.0019
EYVDVDVQDCRG | 0.692 ± 0.035
FAGLVSPASLHP | 0.686 ± 0.026
FAISTSMVNLAM | 0.681 ± 0.039
FAPSPVPPLAPF | 0.682 ± 0.053
FASLVSPWFDLV | 0.716 ± 0.13
FASLVVSYGAGY | 0.6712 ± 0.0019
FASVVADVFQFP | 0.772 ± 0.088
FCCGGEFAWCLG | 0.695 ± 0.016
FCCRLSGFSILG | 0.663 ± 0.033
